From the DeepSol protein solubility set

Assay: soluble on expression in E. coli; label from the status in PepcDB or PDB records

Soluble on expression in E. coli, not soluble:
MGSDKIHHHHHHMRADIIKVNHLLEIEMENNIGKEYLPSRLEEISDEHWHISMPMRKGMYITMRVGQKIRIVLRYRNTMFAATTVIAARRRGHIPVLIVSKPKDLIAINQKRTYVRISVAIPVAFRLLLADGEKGELLQGVTGDISAGGMLLLSPQDMEKDQKIEVEIKLPDSDSIFCQAHVVRVLGKASEEGSNNKYAIEYDDINEGQRDRIFRFIFDKQREWLRKGVTE, MGSDKIHHHHHHMRALATWQDKCIDSQLLVASLVGLFKQRDLDCDKLLRGTGIFITDIRKPDHLISPKQLARLLDNALAQWPNGDLSFLLGQLWFPSQSGVLTSGMFCARDVKELIYFWHKYHWLTQPWLQTWRWQGEHEWHFLLSLDLGMHRHKQFFIELSLSSFMACFKQLLGQAWRGSICFPYPAPDNLAHYYKYFGMDLRFDAPLCRISMAKNLLRQPSLFANQSLLYSQPENVDTHCAEDAQLPSASQSCIHGEAASPALDIQPLQLPLRPQLNMAKAARQALFAQEFRLGLAAGIRLKLMRRTLSLPEMAQILEISPATLKRRLGEMGLNYGQLADESRLIRALYFLAEPEQDAHSIASSLSFSDASNFRRSFKRWTGQLPGYFRYWLA, MGSDKIHHHHHHMRCPWRKTRRHSDNGWYGPRNQIRPDDHRLHRKVRKSRGDSRRAGNGSPRARCFEGAQRRGKSDGLSECGRMKNLLEMVELVRGKRMKIAVGAAEDEEVLKAVARAKEEEIVDPVLFGKRKDIETLVERMNLELEAEIVHVEDPFEAVRKAVESVSRNETQILMKGKIKTSDLFSVFLKKEYGLRTGRTLSAVSVHEVPGYHKILIISDGGLVISPNLQQRMDIVENSILVARALGIEKPKIALLGTGDLKSPLTLEIAALSKIFQQRNDCIVDGPLTLDLAISEELASKAGNSPVAGDADILIVPSIETGNILSKSLVYMARGRAAIVVVGGRVPVVLTSRADDEETRFLSIALSVLVAQKKG, MGSDKIHHHHHHMRDHVEIGIGREARRTYSLDDISVVSSRRTRSSKDVDTTWHIDAYKFDLPFMNHPSDALASPEFVIEMGKQGGLGVINAEGLWGRHADLDEAIAKVIAAYEEGDQAAATRTLQELHAAPLDTELLSERIAQVRDSGEIVAVRVSPQNVREIAPIVIKAGADLLVIQGTLISAEHVNTGGEALNLKEFIGSLDVPVIAGGVNDYTTALHMMRTGAVGIIVGGGENTNSLALGMEVSMATAIADVAAARRDYLDETGGRYVHIIADGSIENSGDVVKAIACGADAVVLGSPLARAEEAAGKGYFWPAVAAHPRFPRGVVTESVDLDEAAPSLEQILHGPSTMPWGVENFEGGLKRALAKCGYTDLKSFQKVSLHVN, MGSDKIHHHHHHMREIAASRISAVLAELIVKISTELGEDILTALHKAYEAEESPAGRDILQSLLENARIAKEKKIPLCQDTGTAIVFAEVGQEVHVTGNFTDAINLGVRQGYEQAYLRKSIVSHPFSKRINTNDNTPAVIHTEIVPGDRLKISFMAKGSGAENMSRLFMLKPGVGREGVIEAVLETVEKAGGSPCPPIIIGLGVGATAEKAMFMAKKALLRPLGITHTDPEVAALETEVLKQVNKLGIGPLGLGGRVTALGVMAETAPTHIASLPVAVNLQCHSARHGEAVL, MGSDKIHHHHHHMREIEHAKYSRLKNAIYKDASVALLTQHGKEKVVTPILASAIGCEVTLVTGFDTDQLGTFTRDIPRAGTQIEAARKKARIGMELAHLPLGLASEGSFGPDPFTGLFSLNVEMVVWIDDTLGIEVVGVASGRTNFSHLLAANWEQAEAFARAIDFPEHGIVVRPRHEDDSRVRKGIADWESLREAFFWACGEADNGCVFLETDVRAHMNPMRMEIIASATRDLADKLATPCPVCNTPGFQIVERVPGLPCEGCGAPTRDTWADIHRCGRCGHQVALERLEKAAPAGHCDWCNP, MGSDKIHHHHHHMRELPPLDLYETEAAERAGMAAGEPSAGDVELPAEPLLAGEARGQPFTRQSVAPLATIDLSTVPADDVTPRRWIVPDLIPDRNVTDISGDGGLGKSLLALQLGIAMAAGRDWLGTMPEPGGFLYVSCEDEPNEVLRRRNAVLAGMGLTPGDIRNLYLADLTDAEGTELAAPGKAALELTALHHRFEVTIRQLRPKCAVLDTRADVFGGNELSRVQVRMFVRSLRRLCIAHDMAIILLSHPSVSGMASGSGQSGSTGWGNSVRSRLYLTAPKSEGDTDLDPDIRILSSKKANYGPHGAEIVLRWDRGMFRPDRDALASLDRDQQDREIEVTFLQLLSKREKEGRRANASSGPNYAPKVLAEMNGTISRAKFRGAMERLFAKEEIASVSYEANGKGSTQLVLTDKGMSRLRIPF, MGSDKIHHHHHHMRHLKAFYVFHVTAESSNYSKAAEKLHITHGAVSKQIKLLESHLSQMLFYKQGRGMCLTQEGELLKQYTDIAFNALDNGIKKLTRESNKHLEVSCEPTLTMRWLMPRLASFFRLTGIDVRLSTAGGPVDLNETGLSLAIRRDDFDISPEYTAHNLVNEWVGPVFSPEYWRKSQNNLGDIVLLHSETRPSAWSDWSSRSKHTFYTNKSKSFEHFYFCLQAAVDGLGAAIGSYPLIVDDLKSGRLVAPFGFTQSGHKYVLLSHTERLGSNELEFLTWLEKTMSLCQPETP, MGSDKIHHHHHHMRIALVTNTFLPLTGGGEFVVHHLGNQWSMQGHDVCVFNSLTAEVAHPEALYKVMRYKIMRGATRFGYHRFPWVNVSTRSLNRQINYFNPDFVSGHFSIPVALYLDNLKPKRIWSITSHGSDIVRNDVNSQRDQYDIDNKLANSLNNASSVIAISNSAKANLLDIGVKPSLIRVIPNGVELNRFKTKANTNIREMFNIPEHKKLVLTVGRNSLVKNLGLGINAVAEIAKSRSDIHYLIVGGGTSQLNETIINRGLRDTVTTCENLAGESLVAAYQQSDIFLSTSNYECCPLVILEAMASGLPIVATQVAGNVDLIDNEVNGLLVGRNNHMHIVNAITMLIADKRLCHSISTTNYDKVSDYSWDTVSRSYLELLQ, MGSDKIHHHHHHMRILFVTEYYPPIHMGGAEISLKILVNKLAKLGHEVTVITPNYTKYKTETEISKNLRVIRFKSWRYFLFKKQLRKISSEIYLRKKSSYYFQLNGYIKLSSFEIMKVVKELLQKEDFDVIHANNLESILGLSKLQVNTKVAHLRDFALLCWNRGLNNNGKLCEGCSLTNIRQCMGANYILGSALVHEINKRKNVLGKFDKILAISNFVKMEFVKRLNIPTEKISVLYNPITQEIVSNISKEEARQYLNLPEDKTIVLFVGTLTELKGAHLIPKIAKELPEHLFVVVGDGPLRKMFTEFPLENVLYVGYQPMEILRHYYKASDILLVPSLWHEPFGRVIIEGAANGCYVVGSDKGAIPEIIHWIGYGTSVPPQSKYFVEAIKNAPQTTKHEKLKIKIINYSHKYAEKFIKAIME, MGSDKIHHHHHHMRKAERLNDMMLFLNDKNSFQLSDIMAKYGVSRSTAIRDIQSLEEIGMPIYSERGRNGHYRVLRNRLLSPIVFNIDEVFALYFSMLTLKAYETTPFHLSVEKLKTKFERCLSAEKIEMLRKIEEVFSLGYIKHNNQCEFLDVILQFTMEEKVCQINYDNNGTEKTYIVQFYNISSAYGQWYVTSYNFETKRMQVFRCDKILALKENDTFEAKKMEELKGVADSFNKKADVTTFEVEIASNGVDLFFKENYPSMKLRQQEGRNCIHGFYHKGEERFIINYLLGYGEKIIAIQPDSLRDMLLNELDTIKKHMQNLSS, MGSDKIHHHHHHMRKMMNEQLPISKSSPLKARFYDYPYFTYPWHFHTEYEIIYVKEGTGMRFVGNNAEKYADGDILLLGSDLPHYMKSDEVYRQEGSTLRTTGTIIQFEKDFMHHAFNYYPHFMKIKNLLEEAQRGIYFPAGCSPRLVDLLESIPVETGVDQITSFLQLLKEMANVASRSVLSTSDFENDIIYDGSRIDKIIVYLNKNYTRQIDLNEISSLAAMNPAAFCRFFKSKTGKSFKNYILEMRIGYACKLLLMGDMNISQISVECGFDTISHFNKSFKKHTGFTPSYYKRMMLAE, MGSDKIHHHHHHMRKWISYPHREGTISRQAHADFPAEAIYEREVGRSGFFGPATHLHHKHPPTAWSAWEGPLRPRAYDLNELPHGTPAPWDAPLVLHNAQCKLRIWRCDQAMTQLSRNADGDDLLFIHGGSGELFCDYGHLSYRDGDYILVPRSTSWRIEPASPTTMLLIETSNGAYQLPEKGLVGPHAIFDEAVLDVPAIDDAFKAQQTEDEWQVVIKRRGALSTVTYPYNPLDAIGWHGNLSVARVNWRDIRPLMSHRYHLPPSAHTTFVADGFVICTFVPRPIESDPGALKVPFYHNNDDYDEVIFYHAGDFFSRDNIKPGMLTFHPAGFTHGPHPKAFAKAMTDPKTFTDEVAVMIDARDALEQGPGLAGVEWQGYVDSWKPKQA, MGSDKIHHHHHHMRLPDAGFRRYIVVAGRRNVGKSSFMNALVGQNVSIVSEYAGTTTDPVYKSMELYPVGPVTLVDTPGLDDVGELGRLRVEKARRVFYRADCGILVTDSEPTPYEDDVVNLFKEMEIPFVVVVNKIDVLGEKAEELKGLYESRYEAKVLLVSALQKKGFDDIGKTISEILPGDEEIPYLGDLIDGGDLVILVVPIDLGAPKGRLIMPQVHAIREALDREAIALVVKERELRYVMENIGMKPKLVITDSQVVMKVASDVPEDVELTTFSIVESRYRGDLAYFVESVRKIEELEDGDTVVIMEGCTHRPLTEDIGRVKIPRWLVNHTGAQLNFKVIAGKDFPDLEEIEGAKLIIHCGGCVLNRAAMMRRVRMAKRLGIPMTNYGVTISYLHGVLDRAIRPFREEVKV, MGSDKIHHHHHHMRPAPSIVEVVAAIIIGSDGSFLLARRPEGKPYAGYWEFPGGKVNPEESLLRALKRELLEELGIHVKHAYPWITRTFTYPHARVRLHFYRVVEWHGEPHPHEDQELSWQFADNVSVEPLLPANAPVLRALALPPVYGITNAAEWGPQIAAARIGHALQKGLRLVQLREKGMRSKALDAFAREVTALAHHYGARILVNSGTGNESLCQELDMDGIHFTSADLMNLSKRPDVEWCAASCHNAEELFRAEQLEMDFAVLAPVLPTLSHPDSPVLGWRKLARIIHGSAIPVYALGGLQSEDLAIAWEHGAHGIALMRRIEQVRGTGQKA, MGSDKIHHHHHHMRPIKNAKKIDYNLIKVFDTVITEGNATRAARKLDVTPAAISQALLRLQNLYGEELFIRTRKGLVPSSKGKSLHQVFRQAIESIESTLCDKTDAQESNELIVLGGDITENYYFPALLDTVLMNRYIIKHYAIKKTGEYSPASMLTHGYADVIMGILEIKNEMIESYLIDNLSDFVCVCGEKSPLVGLEKMSLYNFYAARHAVYHSDMFSSFTADSIDLFKSSTPYAGRREIGYYSDSLFGVIDIVEKSDMVAILPGKIATYFRDVRRYNIKILRMPDEMIFRTLPVYAYLATNSTHYKNVKKLISTFQSTFLFSQEKQPDALVEGSTSLCDLSV, MGSDKIHHHHHHMRPRILLYTGKGGVGKTSIAAATGALLSSKGHKTLIISTDPAHSLGDAFGMEIGHSIKQLADNLYGQEVSVVQSINEHWGELKDYLRSLFLSQGLDPVSADEIATLPGFEEASELLYLRNYYYDEEYDTIIMDSAPTGAALQLLSFPEVMTWYMDKLFPISRKTARVARPLLKPFVDIPLPEDAVFENIDLLYRQLTDIRKILTNNDVTSIRLVTNPDNMSYSETKRAYTYLLLYGYPVDAVIINKILSDETGDFFEKMRGSQKDIITEMENSFVDIKIFKARLLQEEPIGIKKLIELGKLIYGDEDPYKVFYKGTPIKYTKNGDRYILKIKMPFAEKEKLNLFNHGGELTIEIANWKRVFYLPESISDKRPVSAEYSNGYLNVILE
